According to patent publication US20250360126:

Key:
[1] = tested on: T1, NPM2 (embryonic NPM1 paralog)
T1 sequence (Q86SE8 1-214, species assumed, looked up): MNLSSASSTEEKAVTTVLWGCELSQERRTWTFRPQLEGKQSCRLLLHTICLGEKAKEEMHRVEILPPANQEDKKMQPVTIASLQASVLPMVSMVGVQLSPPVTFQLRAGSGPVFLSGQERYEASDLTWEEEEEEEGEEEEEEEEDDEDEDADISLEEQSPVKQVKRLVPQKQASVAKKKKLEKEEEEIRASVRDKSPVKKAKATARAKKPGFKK

[2] = tested on: Nap1 histone chaperone (a TTLL4 substrate protein)
[3] = biological target: Nucleophosmin NPM1, wild type, full-length (UniProt P06748)
Chain of Nucleophosmin NPM1, wild type, full-length (P06748 whole entry): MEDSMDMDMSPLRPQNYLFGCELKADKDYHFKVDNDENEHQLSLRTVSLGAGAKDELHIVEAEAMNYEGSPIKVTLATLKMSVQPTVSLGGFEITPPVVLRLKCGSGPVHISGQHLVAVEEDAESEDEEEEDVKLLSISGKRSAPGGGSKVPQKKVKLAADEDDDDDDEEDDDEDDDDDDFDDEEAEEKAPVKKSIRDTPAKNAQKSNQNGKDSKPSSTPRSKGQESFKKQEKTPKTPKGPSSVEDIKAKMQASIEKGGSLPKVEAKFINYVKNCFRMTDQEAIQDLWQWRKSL

Substance: active human TTLL4 enzyme (Tubulin-Tyrosine Ligase Like 4), recombinant
- in vitro glutamate-glutamylation, immunoblot time course (FIG. 10) (NPM1c (AML-mutant NPM1)): AML-mutant NPM1c is a better in vitro substrate for TTLL4 than the wildtype NPM1
- in vitro glutamate-glutamylation [1]: capable of catalyzing in vitro glutamate-glutamylation of Npm1, Npm2, and Nap1 histone chaperone substrates (not shown)
- in vitro glutamate-glutamylation [2]: capable of catalyzing in vitro glutamate-glutamylation of Npm1, Npm2, and Nap1 histone chaperone substrates (not shown)
- kinase reaction, 32P-labeled phosphorylation (FIG. 7B) [2]: TTLL4 dependent 32P-labeled phosphorylation of Nap1 (a TTLL4 substrate protein)
- glutamate-glutamylation of substrate (FIG. 2B) [3]: TTLL4 glutamylates full-length NPM1
- in vitro glutamate-glutamylation [3]: capable of catalyzing in vitro glutamate-glutamylation of Npm1, Npm2, and Nap1 histone chaperone substrates (not shown)
- in vitro glutamate-glutamylation, immunoblot time course (FIG. 10) [3]: AML-mutant NPM1c is a better in vitro substrate for TTLL4 than the wildtype NPM1
